From patent US20210275686A1, “BINDER/ACTIVE AGENT CONJUGATES DIRECTED AGAINST CXCR5, HAVING ENZYMATICALLY CLEAVABLE LINKERS AND IMPROVED ACTIVITY PROFILE” (BAYER AKTIENGESELLSCHAFT, priority 2018, published 2021)

T1: CXCR5 (CD185; SwissProt: P32302; NCBI reference sequence: NP_001707.1) (human, UniProt P32302 1-372)
T1 sequence: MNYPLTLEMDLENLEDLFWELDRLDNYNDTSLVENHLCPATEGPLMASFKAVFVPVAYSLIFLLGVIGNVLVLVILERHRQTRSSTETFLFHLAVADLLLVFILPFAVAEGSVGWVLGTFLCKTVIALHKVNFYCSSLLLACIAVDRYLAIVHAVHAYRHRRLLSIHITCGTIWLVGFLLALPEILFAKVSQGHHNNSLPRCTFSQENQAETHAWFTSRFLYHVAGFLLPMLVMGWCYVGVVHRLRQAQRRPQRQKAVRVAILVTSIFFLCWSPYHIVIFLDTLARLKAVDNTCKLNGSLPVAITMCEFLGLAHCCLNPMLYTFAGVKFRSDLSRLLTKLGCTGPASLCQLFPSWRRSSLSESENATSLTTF

T2: legumain (Homo sapiens, UniProt Q99538)
T2 construct: purchased R&D Systems 2199-CY
T2 sequence (Q99538 26-323 limits assumed): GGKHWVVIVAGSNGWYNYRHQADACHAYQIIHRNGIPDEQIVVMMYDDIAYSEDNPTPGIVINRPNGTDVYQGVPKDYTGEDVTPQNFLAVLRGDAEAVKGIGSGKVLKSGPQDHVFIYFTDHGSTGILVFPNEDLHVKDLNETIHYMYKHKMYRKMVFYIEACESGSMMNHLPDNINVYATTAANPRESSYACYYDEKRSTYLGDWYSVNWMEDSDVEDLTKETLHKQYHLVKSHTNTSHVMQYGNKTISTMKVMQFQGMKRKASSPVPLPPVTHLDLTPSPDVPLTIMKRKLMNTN

B1: TPP-14495 (antibody, human IgG1, lambda, V domains shown)
VH: EVQLLESGGGLVQPGGSLRLSCAASGFTFSNYWMSWVRQAPGKGLEWVSAISGSGGSTRYADSVKGRFTISRDNSKNTLYLQMNSLRAEDTAVYYCTTQRRELGATNWGQGTLVTVSS
VL: QSVLTQPPSASGTPGQRVTISCTGSSSNIGAGYVVHWYQQLPGTAPKLLIYSNNQRPSGVPDRFSGSKSGTSASLAISGLRSEDEADYYCQSYDSSLSGVVFGGGTKLTVLG
modifications: CypHer 5E fluorescent dye coupled to lysine residues (positions not stated)
B2: TPP-14499 (antibody, human IgG1, lambda, V domains shown)
VH: EVQLLESGGGLVQPGGSLRLSCAASGFTFSNYWGSWVRQAPGKGLEWVSAISGSGGSTYYADSVKGRFTISRDNSKNTLYLQMNSLRAEDTAVYYCTVLRRELGATNWGQGTLVTVSS
VL: QSVLTQPPSASGTPGQRVTISCTGSSSNIGAGYVVHWYQQLPGTAPKLLIYSNNQRPSGVPDRFSGSKSGTSASLAISGLRSEDEADYYCQSYDSSLSGVVFGGGTKLTVLG
modifications: CypHer 5E fluorescent dye coupled to lysine residues (positions not stated)
B3: TPP-14509 (antibody, human IgG1, lambda, V domains shown)
VH: EVQLLESGGGLVQPGGSLRLSCAASGFTFSNYWMSWVRQAPGKGLEWVSAISGSGGSTYYADSVKGRFTISRDNSKNTLYLQMNSLRAEDTAVYYCTVQRRELGATNWGQGTLVTVSS
VL: QSVLTQPPSASGTPGQRVTISCTGSSSNIGAGYVVHWYQQLPGTAPKLLIYSNNQRPSGVPDRFSGSKSGTSASLAISGLRSEDEADYYCQSYDSSLSGVVFGGGTKLTVLG
modifications: CypHer 5E fluorescent dye coupled to lysine residues (positions not stated)
B4: TPP-14505 (antibody, human IgG1, lambda, V domains shown)
VH: EVQLLESGGGLVQPGGSLRLSCAASGFTFSNNWMSWVRQAPGKGLEWVSAISGSGGSTYYADSVKGRFTISRDNSKNTLYLQMNSLRAEDTAVYYCNVQRRELGATNWGQGTLVTVSS
VL: QSVLTQPPSASGTPGQRVTISCTGSSSNIGAGYVVHWYQQLPGTAPKLLIYSNNQRPSGVPDRFSGSKSGTSASLAISGLRSEDEADYYCQSYDSSLSGVVFGGGTKLTVLG
modifications: CypHer 5E fluorescent dye coupled to lysine residues (positions not stated)
B5: TPP-14511 (antibody, human IgG1, lambda, V domains shown)
VH: EVQLLESGGGLVQPGGSLRLSCAASGFTFSNYWMSWVRQAPGKGLEWVSAISGSGGTTYYADSVKGRFTISRDNSKNTLYLQMNSLRAEDTAVYYCTTQRRELGATNWGQGTLVTVSS
VL: QSVLTQPPSASGTPGQRVTISCTGSSSNIGAGYVVHWYQQLPGTAPKLLIYSNNQRPSGVPDRFSGSKSGTSASLAISGLRSEDEADYYCQSYDSSLSGVVFGGGTKLTVLG
modifications: CypHer 5E fluorescent dye coupled to lysine residues (positions not stated)
B6: TPP-10063 (antibody, human IgG1, lambda, V domains shown)
VH: EVQLLESGGGLVQPGGSLRLSCAASGFTFSNYWMSWVRQAPGKGLEWVSAISGSGGSTYYADSVKGRFTISRDNSKNTLYLQMNSLRAEDTAVYYCTTLRRELGATNWGQGTLVTVSS
VL: QSVLTQPPSASGTPGQRVTISCTGSSSNIGAGYVVHWYQQLPGTAPKLLIYSNNQRPSGVPDRFSGSKSGTSASLAISGLRSEDEADYYCQSYDSSLSGVVFGGGTKLTVLG
modifications: CypHer 5E fluorescent dye coupled to lysine residues (positions not stated)
B7: TPP-14514 (antibody, human IgG1, lambda, V domains shown)
VH: EVQLLESGGGLVQPGGSLRLSCAASGFTFSNNWMSWVRQAPGKGLEWVSAISGSGGSTYYADSVKGRFTISRDNSKNTLYLQMNSLRAEDTAVYYCTVQRRELGATNWGQGTLVTVSS
VL: QSVLTQPPSASGTPGQRVTISCTGSSSNIGAGYVVHWYQQLPGTAPKLLIYSNNQRPSGVPDRFSGSKSGTSASLAISGLRSEDEADYYCQSYDSSLSGVVFGGGTKLTVLG
modifications: CypHer 5E fluorescent dye coupled to lysine residues (positions not stated)
B8: 40C01 (antibody, human IgG1, kappa, V domains shown)
VH: EVQLLESGGGLVQPGGSLRLSCAASGFTFSRYVMVWVRQAPGKGLEWVSGISPSGGVTRYAASVKGRFTISRDNSKNTLYLQMNSLRAEDTAVYYCARIRKEMTTISYFFDYWGQGTLVTVSS
VL: DIQMTQSPSSLSASVGDRVTITCRASQGVDAYVAWYQQKPGKVPKLLIYSTSTLASGVPSRFSGSGSGTDFTLTISSLQPEDVATYYCQSHNAAVVTFGQGTRLEIKR
modifications: CypHer 5E fluorescent dye coupled to lysine residues (positions not stated)

Molecular target: CXCR5 (CD185; SwissProt: P32302; NCBI reference sequence: NP_001707.1) (human) (UniProt P32302)
Assay: cell-based or functional assay
Conditions: not given

Row | Molecule | Internalization Rec-1 [MFI] | Internalization SU-DHL-6 [MFI]
1 | Isotype control (antibody) | 2 | 1

Molecular target: T1, CXCR5 (CD185; SwissProt: P32302; NCBI …)
Assay: cell-based or functional assay
Conditions: not given

Row | Molecule | Internalization Rec-1 [MFI] | Internalization SU-DHL-6 [MFI]
2 | B1 | 84 | 12
3 | B2 | 122 | 55
4 | B3 | 129 | 51
5 | B4 | 135 | 61
6 | B5 | 99 | 24
7 | B6 | 65 | 22
8 | B7 | 134 | 53
9 | B8 | 49 | 13

Tested on: Rec-1: human mantle cell lymphoma cells
Assay: Cytotoxic activity, CTG assay, Rec-1
Assay type: cell-based
Conditions: Rec1, metabolites
Procedure: (§1) The culturing of the cells is performed according to the standard method, as specified at the American Tissue Culture Collection (ATCC) or the Leibniz-Institut DSMZ-Deutsche Sammlung von Mikroorganismen and Zellkulturen GmbH (DSMZ) for the respective cell lines.
The cells were cultured using the standard method, with the growth media specified under C-1. To perform the test, the suspended cells were counted and seeded in a 96-well culture plate with a white background (Perkin Elmer, NO 10775584) (at 75 μL/well; the resulting cell numbers per well are: Rec-1: 3000 cells/well, HBL-1 and Oci-Ly-1: 6000 cells/well) and incubated in an incubator at 37° C. and 5% carbon dioxide. […] In a parallel plate, the cell vitality was determined at the beginning of the active agent treatment (day 0) with the Cell Titer Glow (CTG) Luminescent Cell Viability Assay (Promega #G7573 and #G7571). For this purpose, 100 μL of the substrate were added per cell batch; then the plates were covered with aluminum foil, shaken for 2 minutes at 180 rpm with the plate shaker, allowed to stand for 8 minutes on the laboratory bench and then measured with a luminometer (Victor X2, Perkin Elmer). The substrate detected the ATP content in the living cells, generating a luminescence signal whose height is directly proportional to the vitality of the cells. […]

Row | Molecule | IC50 [nM]
10 | CC(C)(C)[C@H](c1cc(-c2cc(F)ccc2F)cn1Cc1ccccc1)N(CC[C@H](N)C(=O)NCCC(=O)N[C@H](CCC(=O)O)C(=O)O)C(=O)CO [Example M1, N-{(2S)-2-Amino-4-[{(1R)-1-[1-benzyl-4-(2,5-difluorophenyl)-1H-pyrrol-2-yl]-2,2-dimethylpropyl}(glycoloyl)amino]butanoyl}-beta-alanyl-D-glutamic acid] | 309

Tested on: Rec-1: human mantle cell lymphoma cells
Assay: Cytotoxic activity, MTT assay, Rec-1
Assay type: cell-based
Conditions: Rec1, metabolites, 96 h
Procedure: as §1
The culturing of the cells was performed according to the standard method with the growth media specified under C-1. For execution, the cells were separated with a solution of Accutase in PBS (Biochrom AG #L2143), pelleted, resuspended in culture medium, counted and seeded on a 96-well culture plate with a white background (Costar #3610) (NCI H292: 2500 cells/well; in 100 μL total volume). Then the cells were incubated in an incubator at 37° C. and 5% carbon dioxide. After 48 h a change of medium was performed. […] The cells in the suspension were counted and seeded into a 96-well culture plate with white background (Costar #3610) (#3610) (Rec-1: 3000 cells/well at a total volume of 100 μL). […] After 96 h the cell proliferation was detected using the MTT assay (ATCC, Manassas, Va., USA, Catalog No. 30-1010K). […] The color formed was detected at 570 nm (Infinite M1000 pro, Tecan). Based on the measured data the IC50 of the growth inhibition was calculated using the DRC (dose-response curve). […]

Row | Molecule | IC50 [nM]
11 | CC(C)(C)[C@H](c1cc(-c2cc(F)ccc2F)cn1Cc1ccccc1)N(CC[C@H](N)C(=O)NCCC(=O)N[C@H](CCC(=O)O)C(=O)O)C(=O)CO [Example M1, N-{(2S)-2-Amino-4-[{(1R)-1-[1-benzyl-4-(2,5-difluorophenyl)-1H-pyrrol-2-yl]-2,2-dimethylpropyl}(glycoloyl)amino]butanoyl}-beta-alanyl-D-glutamic acid] | 387

Molecular target: T2, legumain
Assay: Legumain assay
Assay type: biochemical
Conditions: recombinant human legumain (rhlegumain), 3 μM substrate, pH 5.0, read-out: half-life of legumain-mediated cleavage (converted)
Procedure: The legumain assay was performed with recombinant human enzyme. The rhlegumain enzyme solution (Catalog #2199-CY, R&D Systems) was diluted to the desired concentration in 50 mM Na acetate buffer/100 mM NaCl, pH4.0, and preincubated for 2 h at 37° C. The rhlegumain was then adjusted to a final concentration of […] in 50 mM MES buffer, 250 mM NaCl, pH 5.0. For each legumain-cleavable prodrug to be investigated, a reaction mixture was made up in a micro-reaction vessel (0.5 ml, Eppendorf). For this, the substrate solution was adjusted with 50 mM MES buffer, 250 mM NaCl, pH 5.0 to the desired concentration (2-fold concentration). For the kinetic measurement of the enzymatic reaction, first 250 μL of the legumain solution was taken and the enzymatic reaction was started by adding 250 μL of the substrate solution (final concentration, single concentration; 3 μM). Samples of 50 μL each were taken at various times. Immediately, 100 μL ice-cold methanol was added to the sample to stop the enzymatic reaction and then frozen at −20° C. The selected sampling times were after 0.5 h, 1 h, 3 h and 24 h. The samples were then examined by RP-HPLC analysis and by LC-MS. The determination of the toxophore released enabled the determination of the half-time t1/2 of the enzymatic reaction.

Row | Molecule | half-life at 3 µM [min]
12 | CNC(=O)[C@H](CCN(C(=O)CO)[C@@H](c1cc(-c2cc(F)ccc2F)cn1Cc1ccccc1)C(C)(C)C)NC(=O)[C@H](CC(N)=O)NC(=O)[C@H](C)N(C)C(=O)[C@H](C)NC(=O)Cc1ccncc1 [Model Compound A] | 30
